Data taken from patent US20220119522A1 (DENALI THERAPEUTICS, published 2022).
Blank lines part the entries; values can stand above or below the binder they belong to. No end group written: not given here.

Experiments:
[1] = biological target: T1, human TREM2 on the cell surface (human, UniProt Q9NZC2 19-230); assay: cell-based or functional assay
T1 sequence: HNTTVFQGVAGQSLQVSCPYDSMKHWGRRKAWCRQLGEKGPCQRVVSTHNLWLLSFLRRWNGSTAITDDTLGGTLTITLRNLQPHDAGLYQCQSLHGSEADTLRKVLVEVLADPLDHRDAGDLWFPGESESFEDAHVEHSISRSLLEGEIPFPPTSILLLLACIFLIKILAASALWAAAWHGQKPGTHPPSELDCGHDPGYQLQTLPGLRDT

[2] = biological target: T1, human TREM2 on the cell surface; assay: cell binding, human macrophages, dose titration
[3] = biological target: T2, human TREM2 full length stalk region peptide (aa 129-172) (human, biotinylated (site not stated)); assay: ELISA on biotinylated peptide captured by streptavidin; A450 normalised to isotype control
T2 construct: also called Human TREM2 peptide (aa 129-172); full-length TREM2 stalk peptide
T2 peptide: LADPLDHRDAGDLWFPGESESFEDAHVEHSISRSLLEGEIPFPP
Summary of the method: (§1)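 Sandwich ELISA: biotinylated TREM2 stalk peptides captured on streptavidin-coated plates, antibodies added for 1 h in 1% BSA/PBS, binding detected with anti-human kappa-HRP and TMB at A450. Values expressed as fold over isotype-control background.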

[4] = biological target: T3, human TREM2 truncated stalk peptide (aa 149-163) (human, also: biotinylated (site not given here)); assay: as above
T3 construct: also called Human TREM2 peptide (aa 149-163); truncated stalk peptide containing the ADAM10/17 cleavage site
T3 peptide: SFEDAHVEHSISRSL
Summary of the method: as §1

[5] = biological target: T4, mouse TREM2 full length stalk region peptide (aa 131-169) (mouse, UniProt Q99NH8 131-169, biotinylated (site not stated)); assay: as above
T4 peptide (looked up): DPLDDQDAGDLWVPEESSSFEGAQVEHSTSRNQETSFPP
Summary of the method: as §1

[6] = biological target: T5, His-tagged human TREM2 ECD (human, UniProt Q9NZC2 19-172); assay: SPR (Biacore), antibody captured via anti-human Fab, recombinant TREM2 ECD injected, 1:1 fit
T5 construct: Biacore and HDX say only recombinant human TREM2 (ECD); also called recombinant human TREM2; hTREM2
T5 sequence: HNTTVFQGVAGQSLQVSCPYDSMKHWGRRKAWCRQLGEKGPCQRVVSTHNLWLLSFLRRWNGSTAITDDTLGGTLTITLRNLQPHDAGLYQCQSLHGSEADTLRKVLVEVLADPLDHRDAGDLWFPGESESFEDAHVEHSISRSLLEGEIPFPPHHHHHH
Summary of the method: (§2)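 Antibodies captured on a CM5 chip via anti-human Fab, then 3-fold serial dilutions of recombinant human or cynomolgus TREM2 ECD injected at 30 μL/min in HBS-EP+. Association 300 s, dissociation 600+ s, blank-cell subtracted; kon and koff from simultaneous 1:1 Langmuir fit.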

[7] = biological target: T6, recombinant cynomolgus TREM2 ECD (cynomolgus); assay: as above
T6 construct: extracellular domain; also called cyno TREM2
Summary of the method: as §2

[8] = biological target: T5, His-tagged human TREM2 ECD; assay: SPR (Biacore)
Protocol: (§3) Surface plasmon resonance (Biacore™ 8K instrument) was used to measure anti-TREM2 antibody affinities for human and cynomolgus TREM2 ECD. Anti-TREM2 antibodies were captured using Human Fab Capture Kit (GE Healthcare Life Sciences, Catalog No. 28958325) on a Biacore Series S CM5 sensor chip (GE Healthcare Life Sciences, Catalog No. 29149604). Serial 3-fold dilutions of recombinant human or cynomolgus TREM2 were injected at a flow rate of 30 μL/min. Antibody binding was monitored for 300 seconds, followed by monitoring of antibody dissociation for 600+seconds in HBS-EP+ running buffer (GE Healthcare Life Sciences, Catalog No. BR100669). The binding response was corrected by subtracting the RU value from a blank flow cell. A 1:1 Languir model of simultaneous fitting of kₒₙ and koff was used for kinetics analysis.
(§4) Sequence optimization was conducted by searching within CDR sequences for residues that are susceptible to chemical modification (e.g., asparagine deamidation motifs (NG), aspartic acid isomerization motifs (DS), and potential oxidation residues (tryptophan (W) and methionine (M)) and making amino acid substitutions with conservative and germline residues to remove such sequence liabilities. Humanized and sequence-optimized variants of anti-TREM2 antibodies were then analyzed for binding kinetics using Biacore and dose-titrated cell binding to HEK293-H6 cells (see, Example 1 for representative protocols).

[9] = biological target: T1, human TREM2 on the cell surface; assay: flow cytometry, dose-titrated binding to HEK293-H6 cells
Protocol: After incubation, the cells were centrifuged and washed in FACS buffer (PBS+0.5% BSA) twice. Mixed cells were resuspended in FACS buffer with human Trustain FcX solution (Biolegend, Catalog No. 422302) at a density of 10⁶/mL per cell line. The mixed cell lines were seeded at 200,000 cells per well in a 96-well round-bottom plate and incubated for 20 minutes at room temperature. After incubation, the cells were centrifuged and incubated with anti-TREM2 antibodies of about 0-200 nM dose titration for 45 minutes on ice. After incubation, the cells were centrifuged and washed with FACS buffer three times. […] After incubation, the cells were washed with FACS buffer three times, resuspended in 100 μL of FACS buffer, and analyzed by flow cytometry (BD FACSCanto II, San Jose, Calif.), for which 30,000 events were obtained for each sample. Mean fluorescence intensity per cells were calculated by FlowJo software and used for generating dose response binding curve.
as §4

[10] = biological target: T5, His-tagged human TREM2 ECD; assay: SPR (Biacore); remark: listed apart in the source
Protocol: as §3, with “analysis. […]” for “analysis.”

[11] = biological target: T6, recombinant cynomolgus TREM2 ECD; assay: SPR (Biacore)
Protocol: as §3, with “analysis. […]” for “analysis.”

[12] = biological target: T7, human soluble TREM2 (sTREM2) (human, UniProt Q9NZC2 19-157, limits assumed); assay: MSD assay: sTREM2 captured from healthy human CSF, sulfo-tagged antibody titrated
T7 construct: Native shed sTREM2; also called sTREM2 in Human CSF; sTREM2 in huTrem2 KI mouse plasma
T7 sequence: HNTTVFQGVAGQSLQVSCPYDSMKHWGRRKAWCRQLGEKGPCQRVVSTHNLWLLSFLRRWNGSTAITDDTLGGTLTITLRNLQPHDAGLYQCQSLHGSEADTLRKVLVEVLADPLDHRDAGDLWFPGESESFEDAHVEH
Protocol: (§5) The affinity of anti-TREM2 antibodies to human TREM2 and cynomolgus TREM2 were measured by Biacore (described in Example 1). The potency of anti-TREM2 antibodies were measured in healthy human volunteer CSF samples (Innovative Research) and healthy cynomolgus monkey CSF samples (Worldwide Primates), by MSD assay. The potency of each antibody was determined by its EC50. Briefly, MSD GOLD 96-well small spot streptavidin plates (MSD, Cat. No. L45SA) coated with capture antibody (biotinylated goat anti-human TREM2, R&D Systems, Cat. No. BAF1828) was incubated with biofluid samples diluted 1:3 in Assay Buffer (25% (v/v) MSD Blocker A (MSD, Cat. No. R93BA-A), 75% (v/v) TBST) for one hour at room temperature. After rinsing the wells with TBST, sulfo-tagged anti-TREM2 antibody was added in a serial dilution (4×dilution over 11 points) to the wells of the plate and incubated for one hour at room temperature. The wells were washed with TBST, and MSD Read Buffer (MSD, Cat. No. R92TC-3) was added to the wells. Signal from the samples were measured using an MSD Meso Sector 5600 device. EC50 values for each antibody was determined by four-parameter variable slope non-linear regression. The variable regions of reference antibody #1 are represented by SEQ ID NOS:344 and 345. The variable regions of reference antibody #2 are represented by SEQ ID NOS:346 and 347. The variable regions of reference antibody #3 are represented by SEQ ID NOS:348 and 349.

[13] = biological target: T8, cynomolgus soluble TREM2 (sTREM2) (cynomolgus); assay: MSD assay: sTREM2 captured from healthy cynomolgus CSF, sulfo-tagged antibody titrated
T8 construct: also called sTREM2 in Cyno CSF
Protocol: as §5

pSyk activation (HEK293-H6) EC50 (nM) [1]: 18.8 nM
EC50 [2]: 0.05 nM
fold over background (A450) [3]: 11 fold
fold over background (A450) [4]: 1.2 fold
fold over background (A450) [5]: 1 fold
Kd [6]: 0.33 nM
Kd [7]: 56.9 nM
B1: CL0020314 (antibody, V domains shown)
VH: DVKLVESGGGLVKLGGSLKLSCAASGFTFSSYYMSWVRQTPEKRLELVAAINTNGGRTYYPDTVKGRFTISRDNAKNTLYLQMSSLKSEDTALYYCARESDGGAFAYWGQGTLVTVSA
VL: DVVMTQTPLSLPVSLGDQASISCRSSQSLVHSNGNTYLHWYLQKPGQSPKLLIYKVSNRFSGVPDRFSGSGSGTDFTLKISRVEAEDLGVYFCSQNTHVPLTFGAGTKLELK
notes: also called Clone CL0020314
Survival EC50 (nM), plate coated mAb, human macrophages [1]: 1.6 nM

NFAT EC50 (nM), plate coated mAb [1]: 72.7 nM
EC50 [2]: 5.6 nM
fold over background (A450) [3]: 8.7 fold
fold over background (A450) [4]: 1.3 fold
fold over background (A450) [5]: 6.8 fold
Kd [6]: 0.0259 nM
Kd [7]: 2.52 nM
B4: CL0020315 (antibody, V domains shown)
VH: EVQLQQSGPELVKPGASVKISCKASGYTFTDYNIHWVKQSHGKSLEWIGYIYPYNGVTGYNQKFKSKATLTVDNSSSTAYMELRSLTSEDSAVYYCARSRVDGDYWGQGTTLTVSS
VL: DVVMTQTPLSLPVSLGDQASISCRSSQSLVHSNGNTYLHWYLQKPGQSPKLLIYKISNRFSGVPDRFSGSGSGTDFTLKISRVEAEDLGVYFCSQSTHVPLTFGAGTKLELK
notes: also called Clone CL0020315
Survival EC50 (nM), plate coated mAb, human macrophages [1]: 10.1 nM

Kd [10]: 4.3 nM
Kd [11]: 9.2 nM
EC50 [12]: 7.4 nM
EC50 [13]: 6.5 nM
B6: Reference antibody #2 (antibody, V domains shown)
VH: EVQLVQSGAEVKKPGESLKISCKGSGYSFTSYWIAWVRQMPGKGLEWMGIIYPGDSDTRYSPSFQGQVTISADKSISTAYLQWSSLKASDTAMYFCARQRTFYYDSSDYFDYWGQGTLVTVSS
VL: DIQMTQSPSSVSASVGDRVTITCRASQGISSWLAWYQQKPGKAPKLLIYAASSLQNGVPSRFSGSGSGTDFTLTISSLQPEDFATYFCQQADSFPRTFGQGTKLEIK

Further lines, the binder ahead of its results:

B2: CL0020123 (antibody, V domains shown)
VH: EVQLQQSGAELVRSGASVKLSCTASGFSIEDFYIHWVKQRPEQGLEWIGWIDPENGDSKYAPKFQGKATMTADTSSNTAYLHLSSLTSEDTAVYYCHADHGNYGSTMDYWGQGTSVTVSS
VL: DIQMNQSPSSLSASLGDTVTITCHASQHINVWLSWYQQKPGDHPKLLIYKASNLHTGVPSRFSGSGSGTGFTLTISSLQPEDIATYYCQQGQTYPRTFGGGTKLEIK
notes: also called Clone CL0020123
Kd [8]: 0.1 nM
Survival EC50 (nM), plate coated mAb, human macrophages [1]: 44.7 nM
pSyk activation (human macrophages) EC50 (nM) [1]: 7 nM
EC50 [2]: 0.3 nM
EC50 [9]: 0.26 nM
fold over background (A450) [3]: 1.2 fold
fold over background (A450) [4]: 1.2 fold
fold over background (A450) [5]: 1 fold
Kd [6]: 0.068 nM
Kd [7]: 5.7 nM

B3: CL0020139 (antibody, V domains shown)
VH: EVQLQQSGPELVKPGASVKMSCKAPGYSFTSYLMNWVKQKPGQGLEWIGYINPYSAGSNYNEKFKDKATLTSDKSSSTAYMELRSLTSEDSAVYFCARSSYRYGFDYWGQGTTLTVSS
VL: DIQMTQSSSSFSVSLGDRVTITCKASEDIYNRLAWYQQKPGNAPRLLISGATSLETGVPSRFSGSGSGKDYTLSITSLQTEDVATYSCQQYWSTPWTFGGGTKLEIK
notes: also called Clone CL0020139
NFAT EC50 (nM), plate coated mAb [1]: 30.8 nM
Survival EC50 (nM), plate coated mAb, human macrophages [1]: 1.8 nM
pSyk activation (human macrophages) EC50 (nM) [1]: 23.8 nM
EC50 [2]: 1.6 nM
fold over background (A450) [3]: 1.6 fold
fold over background (A450) [4]: 1.3 fold
fold over background (A450) [5]: 1.4 fold
Kd [6]: 1.6 nM
Kd [7]: 0.3 nM

B5: Reference antibody #1 (antibody, V domains shown)
VH: EVQLVQSGAEVKKPGESLKISCKGSGHSFTNYWIAWVRQMPGKGLEWMGIIYPGDSDTRYSPSFQGQVTISADKSISTAYLQWSSLKASDTAVYFCARQRTFYYDSSGYFDYWGQGTLVTVSS
VL: DIQMTQSPSSVSASVGDRVTITCRASQGISNWLAWYQQKPGKAPKLLIYAASSLQVGVPLRFSGSGSGTDFTLTISSLQPEDFATYYCQQADSFPRNFGQGTKLEIK
Kd [10]: 5.9 nM
Kd [11]: 14 nM
EC50 [12]: 32.6 nM
EC50 [13]: 81.6 nM
